Article PMC3667823

Target: Recombinant HSP with AVI and HIS tag (16 kDa heat shock protein of Mycobacterium tuberculosis) (Mycobacterium tuberculosis) (UniProt P9WMK1)
Experiment: native MS

With “Recombinant HSP with AVI and HIS tag (16 kDa heat shock protein of Mycobacterium tuberculosis) (from UniProt P9WMK1 1-144) (natural protein)” as the substance, how does the stoichiometry N read?
Its stoichiometry N is 2.
